# Laboratory results as given in patent publication US20260308269 (published 2026).
# T1: human TfR apical domain (human)
# T1 chain: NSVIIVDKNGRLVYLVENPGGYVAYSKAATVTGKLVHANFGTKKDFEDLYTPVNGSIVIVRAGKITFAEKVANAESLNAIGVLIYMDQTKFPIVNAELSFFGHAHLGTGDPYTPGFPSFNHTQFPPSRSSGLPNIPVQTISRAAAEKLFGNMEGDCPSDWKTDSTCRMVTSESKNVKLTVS
# Target: T1, human TfR apical domain
# Assay: SPR
row,Kd,Binder
1,1.6 µM,35.d1.12 (protein) ASTKGPSVFPLAPSSKSTSGGTAALGCLVKDYFPEPVTVSWNSGALTSGVHTFPAVLQSSGLYSLSSVVTVPSSSLGTQTYICNVNHKPSNTKVDKKVEPKSCDKTHTCPPCPAPELLGGPSVFLFPPKPKDTLMISRTPEVTCVVVDVSHEDPEVKFNWYVDGVEVHNAKTKPREEQYNSTYRVVSVLTVLHQDWLNGKEYKCKVSNKALPAPIEKTISKAKGQPREPQVYTLPPSRDELTKNQVSLTCLVKGFYPSDIAVEWESFGTEWSNYKTTPPVLDSDGSFFLYSKLTVSKSEWQQGFVFSCSVMHEALHNHYTQKSLSLSPELQLEESCAEAQDGELDGLWTT
2,18.5 µM,35.d1.13 (protein) ASTKGPSVFPLAPSSKSTSGGTAALGCLVKDYFPEPVTVSWNSGALTSGVHTFPAVLQSSGLYSLSSVVTVPSSSLGTQTYICNVNHKPSNTKVDKKVEPKSCDKTHTCPPCPAPELLGGPSVFLFPPKPKDTLMISRTPEVTCVVVDVSHEDPEVKFNWYVDGVEVHNAKTKPREEQYNSTYRVVSVLTVLHQDWLNGKEYKCKVSNKALPAPIEKTISKAKGQPREPQVYTLPPSRDELTKNQVSLTCLVKGFYPSDIAVEWESYGNEWSNYKTTPPVLDSDGSFFLYSKLTVSKSEWQQGFVFSCSVMHEALHNHYTQKSLSLSPELQLEESCAEAQDGELDGLWTT
3,13.2 µM,35.d1.8 (protein) ASTKGPSVFPLAPSSKSTSGGTAALGCLVKDYFPEPVTVSWNSGALTSGVHTFPAVLQSSGLYSLSSVVTVPSSSLGTQTYICNVNHKPSNTKVDKKVEPKSCDKTHTCPPCPAPELLGGPSVFLFPPKPKDTLMISRTPEVTCVVVDVSHEDPEVKFNWYVDGVEVHNAKTKPREEQYNSTYRVVSVLTVLHQDWLNGKEYKCKVSNKALPAPIEKTISKAKGQPREPQVYTLPPSRDELTKNQVSLTCLVKGFYPSDIAVEWESYGNEWSNYKTTPPVLDSDGSFFLYSKLTVTKSEWQQGFVFSCSVMHEALHNHYTQKSLSLSPELQLEESCAEAQDGELDGLWTT
4,3.6 µM,35.d1.20 (protein) ASTKGPSVFPLAPSSKSTSGGTAALGCLVKDYFPEPVTVSWNSGALTSGVHTFPAVLQSSGLYSLSSVVTVPSSSLGTQTYICNVNHKPSNTKVDKKVEPKSCDKTHTCPPCPAPELLGGPSVFLFPPKPKDTLMISRTPEVTCVVVDVSHEDPEVKFNWYVDGVEVHNAKTKPREEQYNSTYRVVSVLTVLHQDWLNGKEYKCKVSNKALPAPIEKTISKAKGQPREPQVYTLPPSRDELTKNQVSLTCLVKGFYPSDIAVEWESYGTEWVNYKTTPPVLDSDGSFFLYSKLTVSKSEWQQGFVFSCSVMHEALHNHYTQKSLSLSPELQLEESCAEAQDGELDGLWTT
5,3 µM,35.d1.7 (protein) ASTKGPSVFPLAPSSKSTSGGTAALGCLVKDYFPEPVTVSWNSGALTSGVHTFPAVLQSSGLYSLSSVVTVPSSSLGTQTYICNVNHKPSNTKVDKKVEPKSCDKTHTCPPCPAPELLGGPSVFLFPPKPKDTLMISRTPEVTCVVVDVSHEDPEVKFNWYVDGVEVHNAKTKPREEQYNSTYRVVSVLTVLHQDWLNGKEYKCKVSNKALPAPIEKTISKAKGQPREPQVYTLPPSRDELTKNQVSLTCLVKGFYPSDIAVEWESYGTEWSSYKTTPPVLDSDGSFFLYSKLTVSKSEWQQGYVFSCSVMHEALHNHYTQKSLSLSPELQLEESCAEAQDGELDGLWTT
6,4.4 µM,35.d1.18 (protein) ASTKGPSVFPLAPSSKSTSGGTAALGCLVKDYFPEPVTVSWNSGALTSGVHTFPAVLQSSGLYSLSSVVTVPSSSLGTQTYICNVNHKPSNTKVDKKVEPKSCDKTHTCPPCPAPELLGGPSVFLFPPKPKDTLMISRTPEVTCVVVDVSHEDPEVKFNWYVDGVEVHNAKTKPREEQYNSTYRVVSVLTVLHQDWLNGKEYKCKVSNKALPAPIEKTISKAKGQPREPQVYTLPPSRDELTKNQVSLTCLVKGFYPSDIAVEWESFGTEWSNYKTTPPVLDSDGSFFLYSKLTVSKSEWQQGYVFSCSVMHEALHNHYTQKSLSLSPELQLEESCAEAQDGELDGLWTT
7,18.8 µM,35.d1.17 (protein) ASTKGPSVFPLAPSSKSTSGGTAALGCLVKDYFPEPVTVSWNSGALTSGVHTFPAVLQSSGLYSLSSVVTVPSSSLGTQTYICNVNHKPSNTKVDKKVEPKSCDKTHTCPPCPAPELLGGPSVFLFPPKPKDTLMISRTPEVTCVVVDVSHEDPEVKFNWYVDGVEVHNAKTKPREEQYNSTYRVVSVLTVLHQDWLNGKEYKCKVSNKALPAPIEKTISKAKGQPREPQVYTLPPSRDELTKNQVSLTCLVKGFYPSDIAVEWESFGTEWTNYKTTPPVLDSDGSFFLYSKLTVSKSEWQQGFVFSCSVMHEALHNHYTQKSLSLSPELQLEESCAEAQDGELDGLWTT
8,1.1 µM,35.d1.24 (protein) ASTKGPSVFPLAPSSKSTSGGTAALGCLVKDYFPEPVTVSWNSGALTSGVHTFPAVLQSSGLYSLSSVVTVPSSSLGTQTYICNVNHKPSNTKVDKKVEPKSCDKTHTCPPCPAPELLGGPSVFLFPPKPKDTLMISRTPEVTCVVVDVSHEDPEVKFNWYVDGVEVHNAKTKPREEQYNSTYRVVSVLTVLHQDWLNGKEYKCKVSNKALPAPIEKTISKAKGQPREPQVYTLPPSRDELTKNQVSLTCLVKGFYPSDIAVEWESYGTEWSNYKTTPPVLDSDGSFFLYSKLTVSKEEWQQGYVFSCSVMHEALHNHYTQKSLSLSPELQLEESCAEAQDGELDGLWTT
9,14.1 µM,35.d1.21 (protein) ASTKGPSVFPLAPSSKSTSGGTAALGCLVKDYFPEPVTVSWNSGALTSGVHTFPAVLQSSGLYSLSSVVTVPSSSLGTQTYICNVNHKPSNTKVDKKVEPKSCDKTHTCPPCPAPELLGGPSVFLFPPKPKDTLMISRTPEVTCVVVDVSHEDPEVKFNWYVDGVEVHNAKTKPREEQYNSTYRVVSVLTVLHQDWLNGKEYKCKVSNKALPAPIEKTISKAKGQPREPQVYTLPPSRDELTKNQVSLTCLVKGFYPSDIAVEWESYGTEWVNYKTTPPVLDSDGSFFLYSKLTVSKSEWQQGYVFSCSVMHEALHNHYTQKSLSLSPELQLEESCAEAQDGELDGLWTT
10,0.61 µM,CH3C.1.35 (protein) ASTKGPSVFPLAPSSKSTSGGTAALGCLVKDYFPEPVTVSWNSGALTSGVHTFPAVLQSSGLYSLSSVVTVPSSSLGTQTYICNVNHKPSNTKVDKKVEPKSCDKTHTCPPCPAPELLGGPSVFLFPPKPKDTLMISRTPEVTCVVVDVSHEDPEVKFNWYVDGVEVHNAKTKPREEQYNSTYRVVSVLTVLHQDWLNGKEYKCKVSNKALPAPIEKTISKAKGQPREPQVYTLPPSRDELTKNQVSLTCLVKGFYPSDIAVEWESYGTEWSSYKTTPPVLDSDGSFFLYSKLTVTKSEWQQGFVFSCSVMHEALHNHYTQKSLSLSPELQLEESCAEAQDGELDGLWTT
11,2.5 µM,35.d1.11 (protein) ASTKGPSVFPLAPSSKSTSGGTAALGCLVKDYFPEPVTVSWNSGALTSGVHTFPAVLQSSGLYSLSSVVTVPSSSLGTQTYICNVNHKPSNTKVDKKVEPKSCDKTHTCPPCPAPELLGGPSVFLFPPKPKDTLMISRTPEVTCVVVDVSHEDPEVKFNWYVDGVEVHNAKTKPREEQYNSTYRVVSVLTVLHQDWLNGKEYKCKVSNKALPAPIEKTISKAKGQPREPQVYTLPPSRDELTKNQVSLTCLVKGFYPSDIAVEWESYGTEWSNYKTTPPVLDSDGSFFLYSKLTVTKSEWQQGYVFSCSVMHEALHNHYTQKSLSLSPELQLEESCAEAQDGELDGLWTT
